Data reported in patent US20230331821A1 (VIR BIOTECHNOLOGY, published 2023).
Where two headings read alike, the source gives them in different places.

Assays:
[1] = molecular target: T1, SARS-CoV-1 RBD (Sino Biological) (SARS-CoV-1, UniProt P59594 306-527); experiment: ELISA, antigen coated on the plate, OD 405 nm
[2] = molecular target: T2, SARS-CoV-2 Spike (S) protein, strain BetaCoV/Wuhan-Hu-1/2019, full length (SARS-CoV-2 Wuhan-Hu-1, UniProt P0DTC2 14-1273)
[3] = molecular target: T3, His-tagged RBD of SARS-CoV-2 (SARS-CoV-2 BetaCoV/Wuhan-Hu-1/2019, UniProt P0DTC2 331-550)
[4] = molecular target: T4, His-tagged RBD of SARS-CoV-1 (SARS-CoV-1, UniProt P59594 306-527)
[5] = molecular target: T2, SARS-CoV-2 Spike (S) protein, strain …; experiment: cell-based or functional assay
[6] = molecular target: T2, SARS-CoV-2 Spike (S) protein, strain …; experiment: flow cytometry, ExpiCHO cells expressing SARS-CoV-2 S; % positive cells
[7] = molecular target: SARS-CoV-1 Spike (S) protein, strain SARS, on ExpiCHO cells (SARS-CoV (SARS-CoV-1), strain SARS, UniProt P59594 14-1255); experiment: flow cytometry, ExpiCHO cells expressing SARS-CoV-1 S; % positive cells
[8] = molecular target: T3, His-tagged RBD of SARS-CoV-2; remark: listed apart in the source
[9] = molecular target: T4, His-tagged RBD of SARS-CoV-1; remark: listed apart in the source
[10] = molecular target: T2, SARS-CoV-2 Spike (S) protein, strain …; experiment: cell-based or functional assay; remark: listed apart in the source
[11] = molecular target: SARS-CoV-2 RBD (produced in house in Expi-CHO cells; residues 331-550 of spike) (SARS-CoV-2 BetaCoV/Wuhan-Hu-1/2019, UniProt P0DTC2 331-550); experiment: BLI (Octet), antibody on protein A sensors, RBD in solution, global fit
[12] = molecular target: T1, SARS-CoV-1 RBD (Sino Biological); experiment: as above
[13] = molecular target: T1, SARS-CoV-1 RBD (Sino Biological); experiment: ELISA, antigen coated on the plate, OD 405 nm; remark: listed apart in the source

B1: S310-rIgG1-LS (antibody, V domains shown)
VH: QVQLVQSGAELKKPGSSVKVSCKASGGTFNSYSFNWVRQAPGQGLEWLGGIIPVLGTSNYAQKFQGRVAVTADEFTTTAYMELSSLRSEDTAVYYCATRTYDSSGYRPYYYGLDVWGQGTPVTVSS
VL: QSALTQPASVSGSPGQSITISCTGTSSDVGSYNLVSWYQQRPGKAPELMIYEVTKRPSGLSNRFSGSKSGNTASLTISGLQAEDEADYYCCSYAGSDTVIFGGGTKVTVL
B1: no binding (tested: 5 µg/ml) [1].

B2: S315 recombinant IgG1 (antibody, V domains shown)
VH: EVQLVESGGGLVQPGGSLRLSCAASGFTFSNYWMTWVRQAPGKGLEWVANIKQDGSEKYYVDSVKGRFTISRDNAKNSLYLQMNSLRAEDTAVYYCARDLWWNDQAHYYGMDVWGQGTTVTVSS
VL: SYELTQPPSVSVSPGQTARITCSGDAFPNQYAYWYQQKPGQAPVMLIYKDSERPSGIPERFFGSSSGTTVTLTIRGVQAEDEADYYCQSADSSGTVFGGGTKLTVL
B2 was tested, and the EC50 [2] was 0.343 µg/mL, the Kd [3] was 811 pM and the Kd [4] was under 1 pM. For the same binder, the “IC50, neutralization of SARS-CoV-2pp on DBT-ACE2 cells” value [5] was 25.1 µg/mL, the “EC50 (read off the curve)” value [6] was about 0.3 µg/mL and the “EC50 (read off the curve)” value [7] was about 0.007 µg/mL.

B3: S304 rIgG1 (antibody, V domains shown)
VH: EVQLVESGGGLVQPGGSLRLSCAASGFTFSSYDMHWVRQTTGKGLEWVSTIGTAGDTYYPDSVKGRFTISREDAKNSLYLQMNSLRAGDTAVYYCARGDSSGYYYYFDYWGQGTLLTVSS
VL: DIQMTQSPSSLSAAVGDRVTITCRASQSIGSYLNWYQQKPGKAPKLLIYAASSLQSGVPSRFSGSGSGTDFTLTISSLQPEDFAIYYCQQSYVSPTYTFGPGTKVDIK
Binder B3 has an EC50 [2] of 0.142 µg/mL, a Kd [8] of 4580 pM and a Kd [9] of 869 pM. The “IC50, neutralization of SARS-CoV-2pp on DBT-ACE2 cells” value [10] was about 16.9 µg/mL, the Kd [11] was 4580 pM and the Kd [12] was 869 pM. The “EC50 (read off the curve)” value [6] was about 0.1 µg/mL and the “EC50 (read off the curve)” value [7] was about 0.01 µg/mL.

B4: S306-rIgG1-LS (antibody, V domains shown)
VH: QVQLVQSGAEVKKPGASVKVSCKASTYTFTSFGISWVRQAPGQGLEWMGWITTYSGDTNYAQKFQGRVTMTTDTSTNTAYMELRSLRSDDTAVYYCASDYFDSSGYYHSFDYWGQGTLVTVSS
VL: EIVLTQSPDTLSLSPGERATLSCRASQSVSSYLAWYQQRPGQAPRLLIYDASKRATGIPARFSGSGSGTDFTLTISSLEPEDFAVYYCQQRSNWPPGCSFGQGTKVEIK
B4: no binding (tested: 5 µg/ml) [13].
